This is an account of results in the nanobody polyreactivity screen of Harvey et al. (2022).

A short description of this data set: yeast display, Sf9 membrane polyspecificity reagent, FACS + sequencing; frameworks hold sequencing errors. In a few lines: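 In a synthetic yeast display library (Saccharomyces cerevisiae BJ5465), nanobody expression was induced with galactose for 36–48 hours. FACS gates were set low and high (top ~1%) using anti-HA fluorescence for expression and streptavidin fluorescence for binding of the Sf9 membrane reagent. Each polyreactivity label is drawn from the gate of origin.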
Consider “QVQLVESGGGLVQAGGSLRLSCAASGFTIHNYAMGWYRQAPGKERELVARITRSGGTTYYADSVKGRFTISRDNAKNTVYLQMNSLKPEDTAVYYCAARRYGYTSITWYDYWGQGTQVTVSS”, for which the “polyreactivity (PSR sort gate)” value is on record as “high polyreactivity”.

Consider “QVQLVESGGGLLQAGGSLRFSCAASGRILAGNAMGWYRQAPGTEREWVAAICSVDSTNYADSVKGRFTISRDNAKNTFYLLMYSLKPEDSAVYYCARVPQYNTYSEFDSWGQGTQVTVSS”, for which the “polyreactivity (PSR sort gate)” value is “low polyreactivity”.

Turning to “QVQLQESGGGLVLAGGSLRLSCSASGNISVYGSMGWYRQAPGKEREFVATIDPGTNTNYADSMKDRFTISRDNAKNTVYLQMNSLKPEDTAVYYCAVEAGSDWPYRYWGQGTQVTVSS”, the “polyreactivity (PSR sort gate)” value is reported as “low polyreactivity”.

As to “QVQLVESGGGLVQAGGSLRLSCAASGRTFRYYAMGWYRQAPAKERELVAAINWNGGRTYYADSVKGRFTISRDNAKNTVYLQMNSLKPEDTAVYYCAAYHYRSPVTGDYWGQGTQVTVSS”, the “polyreactivity (PSR sort gate)” value is “high polyreactivity”.

“QVQLVESGGGLVQAGGSLRLSCAASGSTFYVNAMGWYRQAPGKERELVAAINSGGRTYYADSVKGRFTISRDNAKNTVYLQMNSLKPEDTAVYYCAAEVSYYLNEFDYWGQGTQVTVSS”: the “polyreactivity (PSR sort gate)” value is listed as “low polyreactivity”.

In the case of “QVQLVESGGGLVQAGGSLRLSCAASGRTFFDYAMGWYRQAPGKERELVAAITSSGSSTYYADSVKGRFTISRDNAKNTVYLQMNSLKPEDTAVYYCAAGASANKKITSYDYWGQGTQVTVSS”, the “polyreactivity (PSR sort gate)” value is reported as “low polyreactivity”.

Take “QVQLVESGGGLVQAGGSLRLTCAASGRIFKQYAMGWYRQAPGKEMELVATISSGGDTNYADSVKGRFTISRDNAKNTVYLQMNSLKPEDTAVYFCAAGDIYYAEYEYWGKGTQVTVSS”: the “polyreactivity (PSR sort gate)” value is “low polyreactivity”.

As for “QVQLVESGGGLVQAGGRLRLSCADSGSTFWSYAIGWYRQSPGKEREFVAAISSSDDSTYYADSVKGRFTISRDNAKNTVYLQMNSLKPEDTAVYYCATSWYIYPFDYWGQGTQVTVSS”, the “polyreactivity (PSR sort gate)” value is listed as “low polyreactivity”.

With “QFQLVESGGGLVQAGGSLRLSCAATGRTFYIYSMGWYRQAPGKERELVAAITSGGSTSYADSVKGRFTISRDNAKNTVYLQMNSLKPEDTAVYYCAADQYTYWFGYDYWGQGTQVTVSS”, the “polyreactivity (PSR sort gate)” value is “low polyreactivity”.

With “QVQLVESGGCLVQAGGSLRLSCAASGIIFYTYAMGWYRQAPGKEREFVAGIRWSGSSTYYADSVKGRFTISRDNAKNTVYLQMNSLKPEDTAVYYCATGQPYGPLYSLGYGYWGQGTQVTVSS”, the “polyreactivity (PSR sort gate)” value is on record as “high polyreactivity”.

With “QVQLVESGGGLVQAGGSLRLSCAASGNTFYGYAMGWNRQAPGKERELVASITLSGDSTYYADSVKGRFTISRDNEKNTVYLQMNSLKPEDTAVYDCAGVYTYPLGYYHYTYDYWGQGTQVTVSS”, the “polyreactivity (PSR sort gate)” value was “low polyreactivity”.

Turning to “KLQLVESGGGLVQAGGSLRLSCADSGRIFQGNAMGWYRQAPGKERELVAAITYSGRSTFYADSVKGRFTISRDNAKNTVYLQMNRLKPEDTAFYYCAARQYWTTDLPFQRYYYWGQGTQVTVSS”, the “polyreactivity (PSR sort gate)” value is “low polyreactivity”.

As to “QVQLVESGRRLVQAGGSLRLSCAASGSIFIPNVMGWYRQAPRKERELVASIRSNGGTNYADSVKGRFTISRDNAKNTVYLQMNSLKPEDTAVYNCAAKRWSYRHGFDYLGQGTQVTVSS”, the “polyreactivity (PSR sort gate)” value was “high polyreactivity”.

In the case of “QVQLVESGGGLVQAGGSLRLSWAASGFTFPAYPMGWYRQAPGKERELVASISSSGRTNYADSEKGRFTISRDNAKNTVYLEMYSLKPEDTAVYYCAALLKQRSTSYGYWGQGSQVTVSS”, the “polyreactivity (PSR sort gate)” value was “high polyreactivity”.

For “QVQHVESGGGLVQAGGSLRLSCAASASTLYRNAMGWYRQAPGKEREFVAAISWSGGSTYYADSVMGRFTISRDNAKNTVYLQMNSLKPEDTAVYYCNADTDRYWPYEYDYWGHGTQVTVSS”, the “polyreactivity (PSR sort gate)” value is recorded as “low polyreactivity”.

For “QVQLVESGGGLVQAGGSLRLSCAASGIIFTVYAMGWYRQAPGKERELVAAITWSGGSTYYADSVKGRFTISRDNAKNTVYLQMNSLKPEDTAVYYCNKVGRVWDVETDGDYDYWGQGTQVTVSS”, the “polyreactivity (PSR sort gate)” value is reported as “low polyreactivity”.

For “QVQLVESGGGLVQAGGRLRLSCAASGFTFYRYAMGWYRQAPGKVRQLVATISASGGSTYYADSVKGRFTISRDNAKNTVYLQMNSLKPEDTAVYYCAVRYKSWYGFNYWGQGTQVTVSS”, the “polyreactivity (PSR sort gate)” value is “high polyreactivity”.

In the case of “QVQLVESGGGLVQAGGSLRLSCAASGRIFWLYAMGWYRQAPGKERELVAVISWSGGTTYYADSVKGRFTISRDNAKNTVYLQMNSLKPEYTAVYYCAAQVGYYTNYGEFDYLGQGTQVTVSS”, the “polyreactivity (PSR sort gate)” value is on record as “low polyreactivity”.

With “QVHLVESGGGLVQAGGSLRLSSAAYGGIFDDNAMGWYRQAHGKERELVAAISSSGGSTYYADSVKGRFTISRDNAKYTVYLQMNSLKPEDTAVYYCNADRRRRFGYWGQGTQVNVSS”, the “polyreactivity (PSR sort gate)” value is reported as “high polyreactivity”.

Consider “QVQLVESGGGLVQAGGSLRLSCAPSGFIFGSHAMGWYRQARGKERELVAAISARGGRTYYADSVKERFTISRDNAKNTVYLQMNSLKPADSAVYYCATLDTTGVNYWGQGTQVTVSS”, for which the “polyreactivity (PSR sort gate)” value was “high polyreactivity”.

With “QVQLVESGGGLVQAGGSLRLSCAASGSIFSRYAMGWYRQAPGKERELVAAISTIGGSTYYADSVKGRFTISRDNAKNTVYLQMNSLIPEDTAVYYCNARQTAALTPRYGYWGQGTQVTVSS”, the “polyreactivity (PSR sort gate)” value is on record as “high polyreactivity”.

With “QVQLVESGGGLVQAGGSLRLSCADSGRTFYGNARGWYRQAPGKERELVAAISISGGSTYYADSVKGRFTISRDNAKNTVYLQMNSLKPEDTAVYYCNAQEYYYYPYVYDSDYWGQGTQVTVSS”, the “polyreactivity (PSR sort gate)” value is “low polyreactivity”.

As to “QVQLVESGGGLVQAGGSLRLSCAASGLIFLGYAMGWYRQAPGKERELVASIRTGGSTSYADSVKGRFTISRDNAKNTVYLQMNSLKPEDTAVYYCNARDYASGTEGDYWGQGTQVTVSS”, the “polyreactivity (PSR sort gate)” value is “low polyreactivity”.

For “QVQLVESGGGLVQAGGSLRLSSAASGFIFEDYAMGWYREAPGKARELFAAISRRGGSTYYADSVKGRFTISRDNAQNTVYLQMNSLKPEDTADYYCAARKRYRPGERYEYWGQGTQVTVSS”, the “polyreactivity (PSR sort gate)” value was “high polyreactivity”.

Take “QVQLVESGGGLVQAGGSIRLSCAASGNTFVLYTMGWYRQAPGKERELVAAISGRGTNTYYADSVKGRFTISRDNAKNTVYLQMNSLKPEDTAVYYCAARYKTLVTDYEYWGQGTQVTVSS”: the “polyreactivity (PSR sort gate)” value is listed as “high polyreactivity”.

As for “QVQLVESGGGLVQAGGSLRLSCAASGSIFGINTMGWYRHAPGKEREFVASIRFNDGDTYYADSVKGRFTISRDTAKNTVYLKMNSLKPEDTAVYYCNVQTYVELRLDYWGQGTQVTVSS”, the “polyreactivity (PSR sort gate)” value is reported as “low polyreactivity”.

Turning to “QVQLGESRRGLVQAGGSLRLSCAASGITFWYNATGWYRQSPGKERELDAAISRSAGSTYYADSVKGRFTISRDNAKNTVYLQMNSLKPEDTAVYYCAAKTPGRYYYWGQGTQVTVSS”, the “polyreactivity (PSR sort gate)” value was “high polyreactivity”.

As for “QVHLVESGGGLVQAGGSLRLSCTASGRTFKYNSMGSSRQEPGKERELVAAISSRGGSTYYADSVKGRFTISRDNAKNTVYLQMNSLKPEDTAVYYCAAQFTTRYDWGQGTQVTVSS”, the “polyreactivity (PSR sort gate)” value is “high polyreactivity”.

With “QVQLVESGVVLVQAGGSLRLSCAASGSIFAGYVMGWYRQAPGKERELVASISSGTGTYYADSVKGRFTISRDNAKNTVYLQMNSLKPEDTAVYYCAAECYRTVQFIRSRWSYTYDYWGQGTQVTVSS”, the “polyreactivity (PSR sort gate)” value was “low polyreactivity”.

With “QVQLVESGGGLVQAGGSLRLSCAASGSILSDNAMGWYRQAPGKERELVASIRSGDITKYADSVKGRFTFSRDNAKNTVYLQMNSLKPEDTAVYYCASAGRVLYTRKYYGWRYLNDYWGQGTQVTVSS”, the “polyreactivity (PSR sort gate)” value is given as “low polyreactivity”.

Regarding “QVQLVESGGGLVQAGGSLRLSCAASGRTFVYNAMGWYSQAPGKEREMVAAISFGGGNTYYADSVKGRFTISRDNAKNTVYLQMNSLIPEDTAVYYCAKAYIGYWGASWYYAYDYWGQGTQVTVSS”, the “polyreactivity (PSR sort gate)” value is listed as “low polyreactivity”.

“QVQLVESGGGLVQAGGSLRLSCAASGRTIPWNVMGWYRQAPGKERELVATITSRRTSTNYADSVKGRFTISRDNAKNTVYLQMNSLKPEDTAVYYCARRTVWGAGHYYYWGQGTQVTVSS”: the “polyreactivity (PSR sort gate)” value is “high polyreactivity”.

In the case of “QVQLVESGGGLVQAGGSLRLSCAASGRISYTYSAMGWYRQAPGKERELVAAITRRGGSTSYADSVKGRFTISRDNAKNTVYLQMNSLKPDDTAVYYCAAVGSFHIVDYWGQGTQVTVSS”, the “polyreactivity (PSR sort gate)” value is given as “high polyreactivity”.

Turning to “QVQLVESGGGLVQAGGSLRLSCAASGRTFVDYAMGWYRQAPGKERELVAAINTGGRTKYADSVKGRFTISRDNAKITVYLQMNSLKPEDTAVYYCAARKQYGGVRGDYWGQGTQVTVSS”, the “polyreactivity (PSR sort gate)” value was “high polyreactivity”.

For the sequence “QVQLVESGGGLVQAGGSLRLSCAASGFIFAWSAMGWYRQAPGKERELVAAISYSGGSTFYADSVKGRFTISRDNAKNTVYLQMNSLKPEDTAVYYCARYYRALGTARNDYWGQGTQVTVSS”, the “polyreactivity (PSR sort gate)” value is on record as “low polyreactivity”.

Take “QVQLVESGGGLVQAGGSLRLSCAASGRTFAYYAMGWYRQAPGKERELVAAISTNGGTYYADSVKGRFTISRDNAKNTVYFQLNSLKPEDTAVYSCAAYTSYDVDYWGQGTQVTVSS”: the “polyreactivity (PSR sort gate)” value is “low polyreactivity”.

As for “QVQLVSGGGLVQAGGSLRLSCAASGRIFGTYAMGWYRQAPGKERELVAAITSGGSTYYADSVKGRFTISRDNAKNTVYLQMNSLKPEDSAVYYCAAEYAIWTHWGRYVTGNYWGQGTQVTVSS”, the “polyreactivity (PSR sort gate)” value is listed as “high polyreactivity”.

Take “QVQLVESGGGLVQAGGSLRLSCAASGSTFGTYARGWYRQAPGKERELVAAISWSGGSTYYADSVKGRFTISRDNAKNTVYLQMNSLKPEDTAVYYCNAKTSIGTWVGDDYWGQGTQVTVSS”: the “polyreactivity (PSR sort gate)” value is “low polyreactivity”.

Take “QVQLVESGGGLVQAGGSLRLSCAASGIIFFSNTMGWYRQAPGKEREFVAAITWSTGNTYYADSVKGRFTISRDNAKNTVYLQMNSLKPEDTAVYYCYAEYLVITWYGGVEFDYWGQGTEVTVSS”: the “polyreactivity (PSR sort gate)” value was “low polyreactivity”.

As to “QVQLVESGGGLVQAGGSLRLTCAASGSTFGSYAMGRYRQAPGKERELVAVAISWSGGNTYYADSVKGRFTNSRDNAKNTFYLQMNSLKPEDTAVYYFAAYGTTGVYRGPGYDYWGQGTQVTVSS”, the “polyreactivity (PSR sort gate)” value is “low polyreactivity”.

For the sequence “QVQLVESGGGLVQAGGSLRLSCAASGSIFSLYTMGWYRQAPGKERELVATIRSVGSTNYADSVKGRFTISRDNAKNTVYLQMNSLKPEDTAVYYCAAGWYYGVYYIYDYWGQGTQVNVSS”, the “polyreactivity (PSR sort gate)” value was “high polyreactivity”.
